According to the supplement of paper PMC9112550, “Optimization of the antimicrobial peptide Bac7 by deep mutational scanning” (BMC Biology, 2022):

Tested on: Escherichia coli TOP10
Assay: shrunken log2 fold change of peptide-encoding DNA abundance (4.5 h post-induction vs induction); higher = less antimicrobial activity (less host growth inhibition)
Conditions: time post-induction: 4.5 h; library: site-saturation at positions 5, 18, 19, 20
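Further: peptides expressed intracellularly from a pBAD plasmid library in pooled LB shake-flask culture, induced with 0.3% L-arabinose, DNA abundance read by NGS, three biological replicates, DESeq2 with apeglm shrinkage.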

Row | Sequence | shrunken log2 fold change
1 | RRIRARPPRLPRPRPRPVWEPRP | 0.228
2 | RRIRVRPPRLPRPRPRPVGFPRP | 0.158
3 | RRIRHRPPRLPRPRPRPRMCPRP | -0.0257
4 | RRIRSRPPRLPRPRPRPQFGPRP | 0.0239
5 | RRIRDRPPRLPRPRPRPMHEPRP | 0.0698
6 | RRIRFRPPRLPRPRPRPLPRPRP | 0.669
7 | RRIRKRPPRLPRPRPRPFRPPRP | -0.0332
8 | RRIRMRPPRLPRPRPRPQVVPRP | 0.0936
9 | RRIRTRPPRLPRPRPRPFLDPRP | -0.553
10 | RRIRRRPPRLPRPRPRPDTGPRP | 0.0107
11 | RRIRCRPPRLPRPRPRPGDYPRP | -0.081
12 | RRIRARPPRLPRPRPRPSQTPRP | 0.416
13 | RRIRCRPPRLPRPRPRPNQYPRP | -0.92
14 | RRIRGRPPRLPRPRPRPQLEPRP | 0.838
15 | RRIRSRPPRLPRPRPRPAWSPRP | 0.58
16 | RRIRSRPPRLPRPRPRPCGGPRP | 0.012
17 | RRIRIRPPRLPRPRPRPAKCPRP | -0.126
18 | RRIRIRPPRLPRPRPRPMTNPRP | -0.108
19 | RRIRRRPPRLPRPRPRPRWDPRP | 0.457
20 | RRIRQRPPRLPRPRPRPKNDPRP | -0.379
21 | RRIRQRPPRLPRPRPRPLFRPRP | -0.227
22 | RRIRHRPPRLPRPRPRPHLRPRP | -0.0385
23 | RRIRCRPPRLPRPRPRPVYMPRP | -0.788
24 | RRIRFRPPRLPRPRPRPSVVPRP | -0.786
25 | RRIRPRPPRLPRPRPRPGNGPRP | 0.349

Row | Sequence | shrunken log2 fold change
26 | RRIRRRPPRLPRPRPRPTVYPRP | -0.135
27 | RRIRVRPPRLPRPRPRPHIYPRP | -0.519
28 | RRIRTRPPRLPRPRPRPITPPRP | -0.237
29 | RRIRSRPPRLPRPRPRPTGHPRP | -0.0852
30 | RRIRQRPPRLPRPRPRPCDKPRP | 0.244
31 | RRIRDRPPRLPRPRPRPHGLPRP | -0.0404
32 | RRIRRRPPRLPRPRPRPVSEPRP | 0.34
33 | RRIRFRPPRLPRPRPRPPSWPRP | 0.4
34 | RRIRARPPRLPRPRPRPIPTPRP | -0.0942
35 | RRIRCRPPRLPRPRPRPLNMPRP | -0.646
36 | RRIRERPPRLPRPRPRPDLIPRP | -0.0979
37 | RRIRNRPPRLPRPRPRPMFVPRP | 0.134
38 | RRIRFRPPRLPRPRPRPPWTPRP | 0.123
39 | RRIRARPPRLPRPRPRPDDLPRP | -0.00225
40 | RRIRCRPPRLPRPRPRPAGQPRP | -0.109
41 | RRIRCRPPRLPRPRPRPYRWPRP | -0.141
42 | RRIRARPPRLPRPRPRPTKQPRP | -0.148
43 | RRIRGRPPRLPRPRPRPRKQPRP | 0.875
44 | RRIRERPPRLPRPRPRPSAYPRP | -0.354
45 | RRIRSRPPRLPRPRPRPTQVPRP | 0.839
46 | RRIRMRPPRLPRPRPRPGDHPRP | 0.147
47 | RRIRRRPPRLPRPRPRPDQCPRP | -0.00402
48 | RRIRARPPRLPRPRPRPNMQPRP | 0.18
49 | RRIRMRPPRLPRPRPRPGQVPRP | 0.418
50 | RRIRLRPPRLPRPRPRPMNKPRP | -0.504

Row | Sequence | shrunken log2 fold change
51 | RRIRPRPPRLPRPRPRPFAPPRP | 0.14
52 | RRIRHRPPRLPRPRPRPDIPPRP | -0.193
53 | RRIRTRPPRLPRPRPRPPVHPRP | 0.0813
54 | RRIRSRPPRLPRPRPRPDMDPRP | -0.201
55 | RRIRNRPPRLPRPRPRPSKWPRP | -0.213
56 | RRIRKRPPRLPRPRPRPAANPRP | 0.647
57 | RRIRERPPRLPRPRPRPYCYPRP | -0.979
58 | RRIRKRPPRLPRPRPRPVEMPRP | 0.126
59 | RRIRDRPPRLPRPRPRPIGCPRP | 0.242
60 | RRIRDRPPRLPRPRPRPISAPRP | 0.0787
61 | RRIRFRPPRLPRPRPRPHVIPRP | -0.196
62 | RRIRMRPPRLPRPRPRPQWVPRP | 0.0772
63 | RRIRDRPPRLPRPRPRPCLVPRP | 0.148
64 | RRIRQRPPRLPRPRPRPMNYPRP | -0.182
65 | RRIRARPPRLPRPRPRPFPDPRP | 0.262
66 | RRIRQRPPRLPRPRPRPFAHPRP | -0.0959
67 | RRIRFRPPRLPRPRPRPTVIPRP | -0.371
68 | RRIRNRPPRLPRPRPRPSTRPRP | 0.326
69 | RRIRMRPPRLPRPRPRPRWSPRP | 0.803
70 | RRIRWRPPRLPRPRPRPQLVPRP | 0.144
71 | RRIRRRPPRLPRPRPRPQHNPRP | 0.0256
72 | RRIRDRPPRLPRPRPRPCVAPRP | 0.633
73 | RRIRWRPPRLPRPRPRPDLWPRP | 0.234
74 | RRIRDRPPRLPRPRPRPKPSPRP | 0.503
75 | RRIRDRPPRLPRPRPRPNHEPRP | -0.0728

Row | Sequence | shrunken log2 fold change
76 | RRIRWRPPRLPRPRPRPMIAPRP | 0.00921
77 | RRIRVRPPRLPRPRPRPKFTPRP | -0.0442
78 | RRIRHRPPRLPRPRPRPYWDPRP | -0.849
79 | RRIRYRPPRLPRPRPRPNPNPRP | -0.735
80 | RRIRQRPPRLPRPRPRPGAEPRP | 0.39
81 | RRIRHRPPRLPRPRPRPWDTPRP | -0.164
82 | RRIRSRPPRLPRPRPRPKPGPRP | 0.283
83 | RRIRIRPPRLPRPRPRPSLQPRP | -0.331
84 | RRIRIRPPRLPRPRPRPFTNPRP | -0.16
85 | RRIRRRPPRLPRPRPRPHQQPRP | -0.0551
86 | RRIRWRPPRLPRPRPRPGEHPRP | 0.232
87 | RRIRTRPPRLPRPRPRPCPEPRP | -0.0641
88 | RRIRERPPRLPRPRPRPNNLPRP | -1.05
89 | RRIRERPPRLPRPRPRPNANPRP | 0.343
90 | RRIRCRPPRLPRPRPRPEYTPRP | -0.139
91 | RRIRRRPPRLPRPRPRPPQAPRP | 1.19
92 | RRIRERPPRLPRPRPRPDTLPRP | -0.00753
93 | RRIRDRPPRLPRPRPRPCVPPRP | -0.135
94 | RRIRMRPPRLPRPRPRPCGWPRP | 1.03
95 | RRIRDRPPRLPRPRPRPLAHPRP | 0.151
96 | RRIRNRPPRLPRPRPRPQLSPRP | -0.2
97 | RRIRERPPRLPRPRPRPTHMPRP | -0.182
98 | RRIRTRPPRLPRPRPRPFGIPRP | -0.338
99 | RRIRFRPPRLPRPRPRPKHKPRP | -0.265
100 | RRIRCRPPRLPRPRPRPQVQPRP | 0.0244

Row | Sequence | shrunken log2 fold change
101 | RRIRSRPPRLPRPRPRPPGEPRP | 0.756
102 | RRIRQRPPRLPRPRPRPWTDPRP | 0.0166
103 | RRIRTRPPRLPRPRPRPREYPRP | -0.00842
104 | RRIRNRPPRLPRPRPRPFKWPRP | -0.224
105 | RRIRTRPPRLPRPRPRPKDGPRP | -0.0362
106 | RRIRARPPRLPRPRPRPSPLPRP | 0.238
107 | RRIRERPPRLPRPRPRPNSEPRP | -0.391
108 | RRIRWRPPRLPRPRPRPKMPPRP | 1.71
109 | RRIRLRPPRLPRPRPRPGIDPRP | -0.0208
110 | RRIRDRPPRLPRPRPRPVASPRP | 0.0264
111 | RRIRYRPPRLPRPRPRPWCYPRP | -1.21
112 | RRIRSRPPRLPRPRPRPWRYPRP | -0.336
113 | RRIRWRPPRLPRPRPRPRPIPRP | 0.434
114 | RRIRPRPPRLPRPRPRPDSYPRP | -0.422
115 | RRIRARPPRLPRPRPRPAFAPRP | 0.685
116 | RRIRNRPPRLPRPRPRPERYPRP | 0.0573
117 | RRIRTRPPRLPRPRPRPPSCPRP | 0.35
118 | RRIRKRPPRLPRPRPRPLSCPRP | 0.0262
119 | RRIRWRPPRLPRPRPRPVMTPRP | 0.569
120 | RRIRHRPPRLPRPRPRPRKHPRP | -0.113
121 | RRIRYRPPRLPRPRPRPQKTPRP | -0.0404
122 | RRIRQRPPRLPRPRPRPQADPRP | 0.0769
123 | RRIRERPPRLPRPRPRPHFFPRP | -0.154
124 | RRIRERPPRLPRPRPRPSDNPRP | -1.25
125 | RRIRQRPPRLPRPRPRPEYGPRP | -0.0248
